Non-standard residues stand in square brackets, D forms with d. *: point of attachment. 4‑Guanidinomethylbenzoyl = N=C(N)NCc1ccc(C(=O)*)cc1; Lys(Me2) = CN(C)CCCC[C@H](N)C(=O)O; tBuAla = CC(C)(C)C[C@H](N)C(=O)O; 4Pal = N[C@@H](Cc1ccncc1)C(=O)O; Cha = N[C@@H](CC1CCCCC1)C(=O)O; d(αMeP) = C[C@]1(C(=O)O)CCCN1; dIva = CC[C@@](C)(N)C(=O)O; Isobutyryl = CC(C)C(=O)*; Iva = CC[C@](C)(N)C(=O)O; Nle = CCCC[C@H](N)C(=O)O; dNMeA = CN[C@H](C)C(=O)O; Nva = CCC[C@H](N)C(=O)O; Abu = CC[C@H](N)C(=O)O; Aib = CC(C)(N)C(=O)O
Tests used:
[1] = molecular target: T1, human Y2 receptor (Homo sapiens, UniProt P49146); experiment: Receptor Binding Assay (RBA) for Human Y2, [125I]-PYY displacement on hY2R/CHO membrane fraction; settings: IC50 of test compound/IC50 of PYY(3-36) (PYY(3-36) taken as 1)
T1 construct: expressed in transfected cells; membrane fraction
T1 sequence (P49146 1-381): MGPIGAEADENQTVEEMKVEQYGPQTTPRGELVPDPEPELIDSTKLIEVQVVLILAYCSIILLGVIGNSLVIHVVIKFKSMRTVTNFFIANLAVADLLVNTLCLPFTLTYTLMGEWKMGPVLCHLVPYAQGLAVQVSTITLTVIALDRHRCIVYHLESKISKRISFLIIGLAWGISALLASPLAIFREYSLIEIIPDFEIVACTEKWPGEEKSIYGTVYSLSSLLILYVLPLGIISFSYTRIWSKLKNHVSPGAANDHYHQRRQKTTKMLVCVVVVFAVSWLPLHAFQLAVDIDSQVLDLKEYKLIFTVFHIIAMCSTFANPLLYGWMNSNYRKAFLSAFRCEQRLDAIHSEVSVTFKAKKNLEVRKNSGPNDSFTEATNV
Method in brief: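 Read-out is [125I]-PYY displacement from membranes of CHO/dhfr− cells stably transfected with human Y2R. Membranes were obtained by disrupting cells in a buffer of 10 mM NaHCO3, 5 mM EDTA and protease inhibitors.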

[2] = molecular target: T1, human Y2 receptor; experiment: Human Y2 Receptor G Protein Binding Assay (GBA), [35S]GTPγS; format: biochemical; settings: EC50 of test compound/EC50 of PYY(3-36) (PYY3-36 taken as 1), hY2R/CHO membrane fraction
Method in brief: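 Agonism measured as [35S]GTPγS binding, read by GF/C filtration and scintillation counting after 120 min at room temperature, using human Y2 membranes at 1 μg protein/mL in pH 7.4 Tris/MgCl2/NaCl/GDP buffer. Compound serially diluted 100 μM–1 nM; EC50 normalized to PYY(3-36) (ratio = compound/PYY).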

| Substance | RBA IC50 Ratio [1] | GBA EC50 Ratio [2] |
| --- | --- | --- |
| Ac-[Lys(Me2)23, D-Pro24, Cha27,28,36, Aib31]-PYY(23-36) (Ac-[Lys(Me2)][dP]RH[Cha][Cha]NL[Aib]TRQR[Cha]-NH2; SMILES CC(=O)N[C@@H](CCCCN(C)C)C(=O)N1CCC[C@@H]1C(=O)N[C@@H](CCCNC(=N)N)C(=O)N[C@@H](Cc1c[nH]cn1)C(=O)N[C@@H](CC1CCCCC1)C(=O)N[C@@H](CC1CCCCC1)C(=O)N[C@@H](CC(N)=O)C(=O)N[C@@H](CC(C)C)C(=O)NC(C)(C)C(=O)N[C@H](C(=O)N[C@@H](CCCNC(=N)N)C(=O)N[C@@H](CCC(N)=O)C(=O)N[C@@H](CCCNC(=N)N)C(=O)N[C@@H](CC1CCCCC1)C(N)=O)[C@@H](C)O) [compound No. 160] | 0.92 | 1.3 |
| Isobutanoyl-[Abu26, Cha27,28,36, Leu(Me)30, Aib31]-PYY(25-36) (Isobutyryl-R[Abu][Cha][Cha]N[tBuAla][Aib]TRQR[Cha]-NH2; SMILES CC[C@H](NC(=O)[C@H](CCCNC(=N)N)NC(=O)C(C)C)C(=O)N[C@@H](CC1CCCCC1)C(=O)N[C@@H](CC1CCCCC1)C(=O)N[C@@H](CC(N)=O)C(=O)N[C@@H](CC(C)(C)C)C(=O)NC(C)(C)C(=O)N[C@H](C(=O)N[C@@H](CCCNC(=N)N)C(=O)N[C@@H](CCC(N)=O)C(=O)N[C@@H](CCCNC(=N)N)C(=O)N[C@@H](CC1CCCCC1)C(N)=O)[C@@H](C)O) [compound No. 81] | 51 | 26 |
| Ac-[D-Pro24, Pya(4)26, Cha27,36, Aib28,31, Lys(Me2)30]-PYY(23-36) [compound No. 264] | 1.1 | 1.7 |
| Ac-[D-Pro24, Pya(4)26, Cha27,36, Aib28,31, Lys30]-PYY(22-36) (Ac-AS[dP]R[4Pal][Cha][Aib]NK[Aib]TRQR[Cha]-NH2; SMILES CC(=O)N[C@@H](C)C(=O)N[C@@H](CO)C(=O)N1CCC[C@@H]1C(=O)N[C@@H](CCCNC(=N)N)C(=O)N[C@@H](Cc1ccncc1)C(=O)N[C@@H](CC1CCCCC1)C(=O)NC(C)(C)C(=O)N[C@@H](CC(N)=O)C(=O)N[C@@H](CCCCN)C(=O)NC(C)(C)C(=O)N[C@H](C(=O)N[C@@H](CCCNC(=N)N)C(=O)N[C@@H](CCC(N)=O)C(=O)N[C@@H](CCCNC(=N)N)C(=O)N[C@@H](CC1CCCCC1)C(N)=O)[C@@H](C)O) [compound No. 219] | 2.3 | 1.7 |
| 4-Guanidinomethylbenzoyl-[Nle25, Cha27,28,31,36, Arg30]-PYY(25-36) ({4‑Guanidinomethylbenzoyl}-[Nle]H[Cha][Cha]NR[Cha]TRQR[Cha]-NH2; SMILES CCCC[C@H](NC(=O)c1ccc(CNC(=N)N)cc1)C(=O)N[C@@H](Cc1c[nH]cn1)C(=O)N[C@@H](CC1CCCCC1)C(=O)N[C@@H](CC1CCCCC1)C(=O)N[C@@H](CC(N)=O)C(=O)N[C@@H](CCCNC(=N)N)C(=O)N[C@@H](CC1CCCCC1)C(=O)N[C@H](C(=O)N[C@@H](CCCNC(=N)N)C(=O)N[C@@H](CCC(N)=O)C(=O)N[C@@H](CCCNC(=N)N)C(=O)N[C@@H](CC1CCCCC1)C(N)=O)[C@@H](C)O) [compound No. 76] | 7.2 | 4.5 |

Now from value to substance:

| RBA IC50 Ratio [1] | GBA EC50 Ratio [2] | Substance |
| --- | --- | --- |
| 19 | 13 | Isobutanoyl-[Abu26, Cha27,36, His28, Aib31]-PYY(25-36) (Isobutyryl-R[Abu][Cha]HNL[Aib]TRQR[Cha]-NH2; SMILES CC[C@H](NC(=O)[C@H](CCCNC(=N)N)NC(=O)C(C)C)C(=O)N[C@@H](CC1CCCCC1)C(=O)N[C@@H](Cc1c[nH]cn1)C(=O)N[C@@H](CC(N)=O)C(=O)N[C@@H](CC(C)C)C(=O)NC(C)(C)C(=O)N[C@H](C(=O)N[C@@H](CCCNC(=N)N)C(=O)N[C@@H](CCC(N)=O)C(=O)N[C@@H](CCCNC(=N)N)C(=O)N[C@@H](CC1CCCCC1)C(N)=O)[C@@H](C)O) [compound No. 101] |
| 1.7 | 2.6 | Ac-[D-Pro24, Pya(4)26, Cha27,36, D-Iva28, Lys30, Aib31]-PYY(23-36) (Ac-S[dP]R[4Pal][Cha][dIva]NK[Aib]TRQR[Cha]-NH2; SMILES CC[C@@](C)(NC(=O)[C@H](CC1CCCCC1)NC(=O)[C@H](Cc1ccncc1)NC(=O)[C@H](CCCNC(=N)N)NC(=O)[C@H]1CCCN1C(=O)[C@H](CO)NC(C)=O)C(=O)N[C@@H](CC(N)=O)C(=O)N[C@@H](CCCCN)C(=O)NC(C)(C)C(=O)N[C@H](C(=O)N[C@@H](CCCNC(=N)N)C(=O)N[C@@H](CCC(N)=O)C(=O)N[C@@H](CCCNC(=N)N)C(=O)N[C@@H](CC1CCCCC1)C(N)=O)[C@@H](C)O) [compound No. 234] |
| 3.5 | 6.1 | Ac-[D-MeAla22, D-Pro24, Cha27,28,36, Aib31]-PYY(22-36) (Ac-[dNMeA]S[dP]RH[Cha][Cha]NL[Aib]TRQR[Cha]-NH2; SMILES CC(=O)N(C)[C@H](C)C(=O)N[C@@H](CO)C(=O)N1CCC[C@@H]1C(=O)N[C@@H](CCCNC(=N)N)C(=O)N[C@@H](Cc1c[nH]cn1)C(=O)N[C@@H](CC1CCCCC1)C(=O)N[C@@H](CC1CCCCC1)C(=O)N[C@@H](CC(N)=O)C(=O)N[C@@H](CC(C)C)C(=O)NC(C)(C)C(=O)N[C@H](C(=O)N[C@@H](CCCNC(=N)N)C(=O)N[C@@H](CCC(N)=O)C(=O)N[C@@H](CCCNC(=N)N)C(=O)N[C@@H](CC1CCCCC1)C(N)=O)[C@@H](C)O) [compound No. 124] |
| 4.5 | 2.6 | Ac-[D-αMePro24, Cha27,28,36, Aib31]-PYY(23-36) (Ac-S[d(αMeP)]RH[Cha][Cha]NL[Aib]TRQR[Cha]-NH2; SMILES CC(=O)N[C@@H](CO)C(=O)N1CCC[C@]1(C)C(=O)N[C@@H](CCCNC(=N)N)C(=O)N[C@@H](Cc1c[nH]cn1)C(=O)N[C@@H](CC1CCCCC1)C(=O)N[C@@H](CC1CCCCC1)C(=O)N[C@@H](CC(N)=O)C(=O)N[C@@H](CC(C)C)C(=O)NC(C)(C)C(=O)N[C@H](C(=O)N[C@@H](CCCNC(=N)N)C(=O)N[C@@H](CCC(N)=O)C(=O)N[C@@H](CCCNC(=N)N)C(=O)N[C@@H](CC1CCCCC1)C(N)=O)[C@@H](C)O) [compound No. 155] |
| 5.3 | 3.5 | Ac-[Glu23, D-Pro24, Pya(4)26, Cha27,36, Aib28,31, Lys30]-PYY(22-36) (Ac-AE[dP]R[4Pal][Cha][Aib]NK[Aib]TRQR[Cha]-NH2; SMILES CC(=O)N[C@@H](C)C(=O)N[C@@H](CCC(=O)O)C(=O)N1CCC[C@@H]1C(=O)N[C@@H](CCCNC(=N)N)C(=O)N[C@@H](Cc1ccncc1)C(=O)N[C@@H](CC1CCCCC1)C(=O)NC(C)(C)C(=O)N[C@@H](CC(N)=O)C(=O)N[C@@H](CCCCN)C(=O)NC(C)(C)C(=O)N[C@H](C(=O)N[C@@H](CCCNC(=N)N)C(=O)N[C@@H](CCC(N)=O)C(=O)N[C@@H](CCCNC(=N)N)C(=O)N[C@@H](CC1CCCCC1)C(N)=O)[C@@H](C)O) [compound No. 220] |
| 1.6 | 1.3 | Ac-[D-Pro24, Iva25, Pya(4)26, Cha27,36, Nva28, Aib31, Lys30]-PYY(23-36) (Ac-S[dP][Iva][4Pal][Cha][Nva]NK[Aib]TRQR[Cha]-NH2; SMILES CCC[C@H](NC(=O)[C@H](CC1CCCCC1)NC(=O)[C@H](Cc1ccncc1)NC(=O)[C@](C)(CC)NC(=O)[C@H]1CCCN1C(=O)[C@H](CO)NC(C)=O)C(=O)N[C@@H](CC(N)=O)C(=O)N[C@@H](CCCCN)C(=O)NC(C)(C)C(=O)N[C@H](C(=O)N[C@@H](CCCNC(=N)N)C(=O)N[C@@H](CCC(N)=O)C(=O)N[C@@H](CCCNC(=N)N)C(=O)N[C@@H](CC1CCCCC1)C(N)=O)[C@@H](C)O) [compound No. 352] |

From patent US9260500B2, “Peptide and use thereof” (Takeda Pharmaceutical Company Limited, priority 2009, dated 2016)
